# Positions count from the first letter of the chain named. Names and notes keep the numbering of the source.
# B1: CE115HA000 N54Y one-arm antibody (antibody, human IgG1, kappa, L234A L235A, N297A, name in Kabat numbering)
# heavy: QVQLVESGGGVVQPGRSLRLSCAASGFTFSNAWMHWVRQAPGKGLEWVAQIKAKSNYYATYYAESVKGRFTISRDDSKNSLYLQMNSLKTEDTAVYYCRYVHYGAYYGVDAWGQGTTVTVSSASTKGPSVFPLAPSSKSTSGGTAALGCLVKDYFPEPVTVSWNSGALTSGVHTFPAVLQSSGLYSLSSVVTVPSSSLGTQTYICNVNHKPSNTKVDKKVEPKSCDKTHTCPPCPAPEAAGGPSVFLFPPKPKDTLMISRTPEVTCVVVDVSHEDPEVKFNWYVDGVEVHNAKTKPREEQYASTYRVVSVLTVLHQDWLNGKEYKCKVSNKALPAPIEKTISKAKGQPREPQVYTLPPSRCELTKNQVSLSCAVKGFYPSDIAVEWESNGQPENNYKTTPPVLDSDGSFFLVSKLTVDKSRWQQGNVFSCSVMHEALHNHYTQKSLSLSPDYKDDDDK
# chain: EPKSSDKTHTCPPCPAPELLGGPSVFLFPPKPKDTLMISRTPEVTCVVVDVSHEDPEVKFNWYVDGVEVHNAKTKPREEQYNSTYRVVSVLTVLHQDWLNGKEYKCKVSNKALPAPIEKTISKAKGQPREPQVCTLPPSRDELTKNQVSLWCLVKGFYPSDIAVEWESNGQPENNYKTTPPVLDSDGSFFLYSKLTVDKSRWQQGNVFSCSVMHEALHNRYTQKSLSLSP
# light: DIVMTQSPLSLPVTPGEPASISCRSSQSLVHSNRNTYLHWYQQKPGQAPRLLIYKVSNRFSGVPDRFSGSGSGTDFTLKISRVEAEDVGVYYCGQGTQVPYTFGQGTKLEIKRTVAAPSVFIFPPSDEQLKSGTASVVCLLNNFYPREAKVQWKVDNALQSGNSQESVTEQDSKDSTYSLSSTLTLSKADYEKHKVYACEVTHQGLSSPVTKSFNRGEC
# B2: CE115HA000 Q50E one-arm antibody (antibody, human IgG1, kappa, L234A L235A, N297A, name in Kabat numbering)
# heavy: B1 heavy with Q50E, Y57N
# chain: B1 chain
# light: B1 light
# B3: CE115HA000 R16E one-arm antibody (antibody, human IgG1, kappa, L234A L235A, N297A, name in Kabat numbering)
# heavy: B1 heavy with R16E, Y57N
# chain: B1 chain
# light: B1 light
# B4: CE115HA000 S52cQ one-arm antibody (antibody, human IgG1, kappa, L234A L235A, N297A, name in Kabat numbering)
# heavy: B1 heavy with S55Q, Y57N
# chain: B1 chain
# light: B1 light
# B5: CE115HA000 Q50A one-arm antibody (antibody, human IgG1, kappa, L234A L235A, N297A, name in Kabat numbering)
# heavy: B1 heavy with Q50A, Y57N
# chain: B1 chain
# light: B1 light
# B6: CE115HA000 S30D one-arm antibody (antibody, human IgG1, kappa, L234A L235A, N297A, name in Kabat numbering)
# heavy: B1 heavy with S30D, Y57N
# chain: B1 chain
# light: B1 light
# B7: CE115HA000 Q105E one-arm antibody (antibody, human IgG1, kappa, L234A L235A, N297A, name in Kabat numbering)
# heavy: B1 heavy with Y57N, Q114E
# chain: B1 chain
# light: B1 light
# B8: CE115HA000 Q50I one-arm antibody (antibody, human IgG1, kappa, L234A L235A, N297A, name in Kabat numbering)
# heavy: B1 heavy with Q50I, Y57N
# chain: B1 chain
# light: B1 light
# B9: CE115HA000 S52cL one-arm antibody (antibody, human IgG1, kappa, L234A L235A, N297A, name in Kabat numbering)
# heavy: B1 heavy with S55L, Y57N
# chain: B1 chain
# light: B1 light
# B10: CE115HA000 S52cD one-arm antibody (antibody, human IgG1, kappa, L234A L235A, N297A, name in Kabat numbering)
# heavy: B1 heavy with S55D, Y57N
# chain: B1 chain
# light: B1 light
# B11: CE115HA000 S62E one-arm antibody (antibody, human IgG1, kappa, L234A L235A, N297A, name in Kabat numbering)
# heavy: B1 heavy with Y57N, S65E
# chain: B1 chain
# light: B1 light
# B12: CE115HA000 S62D one-arm antibody (antibody, human IgG1, kappa, L234A L235A, N297A, name in Kabat numbering)
# heavy: B1 heavy with Y57N, S65D
# chain: B1 chain
# light: B1 light
# B13: CE115HA000 S74A one-arm antibody (antibody, human IgG1, kappa, L234A L235A, N297A, name in Kabat numbering)
# heavy: B1 heavy with Y57N, S77A
# chain: B1 chain
# light: B1 light
# B14: CE115HA000 S62K one-arm antibody (antibody, human IgG1, kappa, L234A L235A, N297A, name in Kabat numbering)
# heavy: B1 heavy with Y57N, S65K
# chain: B1 chain
# light: B1 light
# B15: CE115HA000 S52cA one-arm antibody (antibody, human IgG1, kappa, L234A L235A, N297A, name in Kabat numbering)
# heavy: B1 heavy with S55A, Y57N
# chain: B1 chain
# light: B1 light
# B16: CE115HA000 Q50L one-arm antibody (antibody, human IgG1, kappa, L234A L235A, N297A, name in Kabat numbering)
# heavy: B1 heavy with Q50L, Y57N
# chain: B1 chain
# light: B1 light
# B17: CE115HA000 S52cV one-arm antibody (antibody, human IgG1, kappa, L234A L235A, N297A, name in Kabat numbering)
# heavy: B1 heavy with S55V, Y57N
# chain: B1 chain
# light: B1 light
# B18: CE115HA000 S52cG one-arm antibody (antibody, human IgG1, kappa, L234A L235A, N297A, name in Kabat numbering)
# heavy: B1 heavy with S55G, Y57N
# chain: B1 chain
# light: B1 light
# B19: CE115HA000 N82aD one-arm antibody (antibody, human IgG1, kappa, L234A L235A, N297A, name in Kabat numbering)
# heavy: B1 heavy with Y57N, N86D
# chain: B1 chain
# light: B1 light
# B20: CE115HA000 Q50S one-arm antibody (antibody, human IgG1, kappa, L234A L235A, N297A, name in Kabat numbering)
# heavy: B1 heavy with Q50S, Y57N
# chain: B1 chain
# light: B1 light
# B21: CE115HA000 S52cF one-arm antibody (antibody, human IgG1, kappa, L234A L235A, N297A, name in Kabat numbering)
# heavy: B1 heavy with S55F, Y57N
# chain: B1 chain
# light: B1 light
# B22: CE115HA000 Q50D one-arm antibody (antibody, human IgG1, kappa, L234A L235A, N297A, name in Kabat numbering)
# heavy: B1 heavy with Q50D, Y57N
# chain: B1 chain
# light: B1 light
# B23: CE115HA000 R16Q one-arm antibody (antibody, human IgG1, kappa, L234A L235A, N297A, name in Kabat numbering)
# heavy: B1 heavy with R16Q, Y57N
# chain: B1 chain
# light: B1 light
# B24: CE115HA000 S52cY one-arm antibody (antibody, human IgG1, kappa, L234A L235A, N297A, name in Kabat numbering)
# heavy: B1 heavy with S55Y, Y57N
# chain: B1 chain
# light: B1 light
# B25: CE115HA000 Q50Y one-arm antibody (antibody, human IgG1, kappa, L234A L235A, N297A, name in Kabat numbering)
# heavy: B1 heavy with Q50Y, Y57N
# chain: B1 chain
# light: B1 light
# B26: CE115HA000 N76S one-arm antibody (antibody, human IgG1, kappa, L234A L235A, N297A, name in Kabat numbering)
# heavy: B1 heavy with Y57N, N79S
# chain: B1 chain
# light: B1 light
# B27: CE115HA000 S74P one-arm antibody (antibody, human IgG1, kappa, L234A L235A, N297A, name in Kabat numbering)
# heavy: B1 heavy with Y57N, S77P
# chain: B1 chain
# light: B1 light
# B28: CE115HA000 R19T one-arm antibody (antibody, human IgG1, kappa, L234A L235A, N297A, name in Kabat numbering)
# heavy: B1 heavy with R19T, Y57N
# chain: B1 chain
# light: B1 light
# B29: CE115HA000 Q50K one-arm antibody (antibody, human IgG1, kappa, L234A L235A, N297A, name in Kabat numbering)
# heavy: B1 heavy with Q50K, Y57N
# chain: B1 chain
# light: B1 light
# B30: CE115HA000 S52cK one-arm antibody (antibody, human IgG1, kappa, L234A L235A, N297A, name in Kabat numbering)
# heavy: B1 heavy with S55K, Y57N
# chain: B1 chain
# light: B1 light
# B31: CE115HA000 S62P one-arm antibody (antibody, human IgG1, kappa, L234A L235A, N297A, name in Kabat numbering)
# heavy: B1 heavy with Y57N, S65P
# chain: B1 chain
# light: B1 light
# B32: CE115HA000 S30G one-arm antibody (antibody, human IgG1, kappa, L234A L235A, N297A, name in Kabat numbering)
# heavy: B1 heavy with S30G, Y57N
# chain: B1 chain
# light: B1 light
# Biological target: T1, CD3ε homodimer protein (human, UniProt P07766 23-126, limits assumed, sulfo-tag or biotin label in the ECL assays; amine-coupled to the chip in SPR)
# T1 construct: also called human CD3ε homodimer protein; CD3 (CD3ε)
# T1 sequence (P07766 23-126 limits assumed): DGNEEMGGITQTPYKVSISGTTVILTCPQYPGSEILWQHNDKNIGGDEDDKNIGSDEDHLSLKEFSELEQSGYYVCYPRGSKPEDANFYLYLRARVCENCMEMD
# Test: SPR Biacore T200; CD3ε homodimer on CM4 chip;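 note: Single-residue variant antibodies injected as analyte over CD3ε homodimer immobilized by amine coupling, run at 25 °C in HBS-EP+ buffer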
row,ratio of amounts bound Z=Y/X (altered form / CE115HA000),Binder
1,1.03,B1
2,0.26,B2
3,0.88,B3
4,1.04,B4
5,0.24,B5
6,0.86,B6
7,0.94,B7
8,0.4,B8
9,0.98,B9
10,0.6,B10
11,0.92,B11
12,0.92,B12
13,1.05,B13
14,1.19,B14
15,0.96,B15
16,0.23,B16

row,ratio of amounts bound Z=Y/X (altered form / CE115HA000),Binder
1,0.93,B17
2,0.97,B18
3,0.73,B19
4,0.24,B20
5,1.13,B21
6,0.27,B22
7,0,B23
8,1.11,B24
9,0.25,B25
10,0.92,B26
11,0.91,B27
12,0.8,B28
13,0.33,B29
14,1.19,B30
15,1,B31
16,1.01,B32
